According to patent US20060141451A1 (ORTHO MCNEIL PHARMACEUTICAL, published 2006):
No end group written: not given here.

Key:
[1] = biological target: T1, guinea pig proteinase-activated receptor 4 (PAR-4) (guinea pig (Cavia porcellus)); assay: cell-based or functional assay
T1 chain: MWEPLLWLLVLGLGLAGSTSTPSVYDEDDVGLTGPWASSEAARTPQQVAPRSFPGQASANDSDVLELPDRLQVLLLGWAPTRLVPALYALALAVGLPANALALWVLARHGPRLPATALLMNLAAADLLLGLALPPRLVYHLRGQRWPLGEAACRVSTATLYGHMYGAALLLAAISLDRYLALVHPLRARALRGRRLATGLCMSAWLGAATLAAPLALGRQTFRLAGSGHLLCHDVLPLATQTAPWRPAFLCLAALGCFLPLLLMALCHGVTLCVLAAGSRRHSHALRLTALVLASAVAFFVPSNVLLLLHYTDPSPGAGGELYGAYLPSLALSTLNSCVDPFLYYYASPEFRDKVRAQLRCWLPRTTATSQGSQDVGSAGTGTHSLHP

human PAR-4 = biological target: T2, human PAR-4 (human, UniProt Q96RI0 48-385); assay: cell-based or functional assay
T2 sequence (looked up): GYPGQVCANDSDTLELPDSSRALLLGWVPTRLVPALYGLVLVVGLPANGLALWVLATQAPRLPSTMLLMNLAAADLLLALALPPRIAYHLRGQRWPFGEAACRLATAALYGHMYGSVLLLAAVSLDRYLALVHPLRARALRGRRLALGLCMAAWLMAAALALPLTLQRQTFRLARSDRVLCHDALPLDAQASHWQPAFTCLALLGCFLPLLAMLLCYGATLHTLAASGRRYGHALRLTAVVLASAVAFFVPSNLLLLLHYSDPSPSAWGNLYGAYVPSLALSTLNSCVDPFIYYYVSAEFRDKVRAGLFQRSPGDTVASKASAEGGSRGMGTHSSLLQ

B1: guinea pig PAR-4 activating peptide SFPGQA-NH2 (peptide)
peptide: SFPGQA-NH2
Q: B1 was tested. Which “aggregation of guinea pig gel filtered platelets, EC50” value [1] did it give?
A: 174 µM

Q: And the “aggregation of human gel filtered platelets, EC50” value (human PAR-4)?
A: 140 µM
